# According to paper PMC10786891, “Massively parallel profiling of RNA-targeting CRISPR-Cas13d”:
# Numbering of substitutions follows the chain as printed. Names may count otherwise.
# T1: EsCas13d, nuclease-dead (Eubacterium siraeum, UniProt B0MS50, R295A;H300A;R849A;H854A)
# T1 sequence: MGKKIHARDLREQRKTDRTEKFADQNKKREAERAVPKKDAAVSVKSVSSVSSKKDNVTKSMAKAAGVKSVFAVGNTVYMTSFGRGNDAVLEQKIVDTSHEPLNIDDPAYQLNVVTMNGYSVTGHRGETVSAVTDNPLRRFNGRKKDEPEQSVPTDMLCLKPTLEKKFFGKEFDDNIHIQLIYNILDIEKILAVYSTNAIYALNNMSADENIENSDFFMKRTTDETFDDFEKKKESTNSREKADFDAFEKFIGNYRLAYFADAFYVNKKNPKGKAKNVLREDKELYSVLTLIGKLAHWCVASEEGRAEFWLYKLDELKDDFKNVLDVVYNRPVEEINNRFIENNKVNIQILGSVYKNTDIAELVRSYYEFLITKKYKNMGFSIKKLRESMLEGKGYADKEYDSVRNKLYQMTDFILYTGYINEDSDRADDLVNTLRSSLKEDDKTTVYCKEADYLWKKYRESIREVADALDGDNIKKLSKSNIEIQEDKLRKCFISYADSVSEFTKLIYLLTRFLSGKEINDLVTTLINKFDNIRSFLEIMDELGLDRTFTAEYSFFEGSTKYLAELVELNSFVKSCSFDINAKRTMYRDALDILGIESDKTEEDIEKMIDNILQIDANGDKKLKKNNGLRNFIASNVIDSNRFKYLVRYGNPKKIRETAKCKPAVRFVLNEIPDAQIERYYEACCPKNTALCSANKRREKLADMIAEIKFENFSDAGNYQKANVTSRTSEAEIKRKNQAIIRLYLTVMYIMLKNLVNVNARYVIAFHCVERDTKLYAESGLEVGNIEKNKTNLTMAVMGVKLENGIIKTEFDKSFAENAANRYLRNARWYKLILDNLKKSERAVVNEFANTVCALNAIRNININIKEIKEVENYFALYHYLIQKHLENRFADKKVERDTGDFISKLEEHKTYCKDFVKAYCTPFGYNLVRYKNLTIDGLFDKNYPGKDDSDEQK
# B1: target 1 insA 3' of 13,insC 3' of 8 (mixed)
# RNA 1: CACCCGUGCAAAAAUGCAGGGGUCUAAAACUGAGCGGAUAACCUCUCUAUGG
# RNA 2: GGGAAUGGAUCCACAUCUACGAAUUCGUACCAUAGAGAGAGUUAUCCCGCUCACCGAGAUCGGAAGAGCACACGU
# B2: target 1 insA 3' of 15,insA 3' of 6 (mixed)
# RNA 1: B1 RNA 1
# RNA 2: B1 RNA 2 with G39A, A40G, C48A
# B3: target 1 U3G,C4G (mixed)
# RNA 1: B1 RNA 1
# RNA 2: GGGAAUGGAUCCACAUCUACGAAUUCGUACCAUAGAGAGGUUAUCCGGGCACCGAGAUCGGAAGAGCACACGU
# B4: target 1 insU 3' of 21,insU 3' of 12 (mixed)
# RNA 1: B1 RNA 1
# RNA 2: GGGAAUGGAUCCACAUCUACGAAUUCGUACCUAUAGAGAGGUUUAUCCGCUCACCGAGAUCGGAAGAGCACACGU
# B5: target 1 U3C,C4U (mixed)
# RNA 1: B1 RNA 1
# RNA 2: B3 RNA 2 with G48U, G49C
# B6: target 1 insU 3' of 7,insC 3' of 5 (mixed)
# RNA 1: B1 RNA 1
# RNA 2: B1 RNA 2 with A40G, G41U, U43A, A44U, U45C, C46U, C48G, G49C
# B7: target 1 insA 3' of 5,insA 3' of 5 (mixed)
# RNA 1: B1 RNA 1
# RNA 2: B1 RNA 2 with A40G, G41U, U43A, A44U, U45C, C47G, C48A, G49A
# B8: target 1 C4G,U8C (mixed)
# RNA 1: B1 RNA 1
# RNA 2: B3 RNA 2 with U44C, G49U
# B9: target 1 insC 3' of 19,insC 3' of 15 (mixed)
# RNA 1: B1 RNA 1
# RNA 2: B4 RNA 2 with U32A, A33U, U34C, A39C, G40A, U42G
# B10: target 1 U3A,C7U (mixed)
# RNA 1: B1 RNA 1
# RNA 2: B3 RNA 2 with C45U, G48C, G49A
# B11: target 1 C2A,G15A (mixed)
# RNA 1: B1 RNA 1
# RNA 2: B3 RNA 2 with G37A, G48C, G49U, C50A
# B12: target 1 U3A,G15A (mixed)
# RNA 1: B1 RNA 1
# RNA 2: B3 RNA 2 with G37A, G48C, G49A
# B13: target 1 U3C,U11G (mixed)
# RNA 1: B1 RNA 1
# RNA 2: B3 RNA 2 with U41G, G48C, G49C
# B14: target 1 insG 3' of 10,insG 3' of 4 (mixed)
# RNA 1: B1 RNA 1
# RNA 2: B1 RNA 2 with A40G, G41U, U43G, C48G, G49C, C50G
# B15: target 1 C6A,A16U (mixed)
# RNA 1: B1 RNA 1
# RNA 2: B3 RNA 2 with A36U, C46A, G48C, G49U
# B16: target 1 insG 3' of 22,insA 3' of 15 (mixed)
# RNA 1: B1 RNA 1
# RNA 2: B4 RNA 2 with C31G, U32C, G40A, U42G
# B17: target 1 insA 3' of 13,insA 3' of 8 (mixed)
# RNA 1: B1 RNA 1
# RNA 2: B1 RNA 2 with C46A
# B18: target 1 C2U,C22U (mixed)
# RNA 1: B1 RNA 1
# RNA 2: B3 RNA 2 with C30U, G48C, G49U, C50U
# B19: target 1 C6U,A18G (mixed)
# RNA 1: B1 RNA 1
# RNA 2: B3 RNA 2 with A34G, C46U, G48C, G49U
# B20: target 1 insU 3' of 21,insC 3' of 8 (mixed)
# RNA 1: B1 RNA 1
# RNA 2: B4 RNA 2 with U44A, A45U, U46C
# B21: target 1 insA 3' of 22,insG 3' of 3 (mixed)
# RNA 1: B1 RNA 1
# RNA 2: B4 RNA 2 with C31A, U32C, U44A, A45U, U46C, C48G, G49C, C50U, U51G
# B22: target 1 insG 3' of 16,insA 3' of 7 (mixed)
# RNA 1: B1 RNA 1
# RNA 2: B1 RNA 2 with A38G, G39A, A40G, C47A
# B23: target 1 A9U,G17U (mixed)
# RNA 1: B1 RNA 1
# RNA 2: B3 RNA 2 with G35U, A43U, G48C, G49U
# B24: target 1 U19G (mixed)
# RNA 1: B1 RNA 1
# RNA 2: B3 RNA 2 with U33G, G48C, G49U
# B25: target 1 A1G,C2A (mixed)
# RNA 1: B1 RNA 1
# RNA 2: B3 RNA 2 with G48C, G49U, C50A, A51G
# B26: target 1 insC 3' of 18,insA 3' of 11 (mixed)
# RNA 1: B1 RNA 1
# RNA 2: B4 RNA 2 with U32A, A33U, U34A, A35C, U43A
# B27: target 1 A18G,U19A (mixed)
# RNA 1: B1 RNA 1
# RNA 2: B3 RNA 2 with U33A, A34G, G48C, G49U
# B28: target 1 insC 3' of 20,insG 3' of 9 (mixed)
# RNA 1: B1 RNA 1
# RNA 2: B4 RNA 2 with U32A, A33C, U44A, A45G
# B29: target 1 insC 3' of 5,insC 3' of 1 (mixed)
# RNA 1: B1 RNA 1
# RNA 2: GGGAAUGGAUCCACAUCUACGAAUUCGUACCAUAGAGAGGUUAUCCGCCUCACCCGAGAUCGGAAGAGCACACGU
# B30: target 1 U8A,A9G (mixed)
# RNA 1: B1 RNA 1
# RNA 2: B3 RNA 2 with A43G, U44A, G48C, G49U
# B31: target 1 insC 3' of 5,insG 3' of 1 (mixed)
# RNA 1: B1 RNA 1
# RNA 2: B29 RNA 2 with C53G
# B32: target 1 insU 3' of 14,insG 3' of 14 (mixed)
# RNA 1: B1 RNA 1
# RNA 2: B1 RNA 2 with G39U, A40G, U42G, A44U, U45A, C46U
# B33: target 1 G5C,C7A (mixed)
# RNA 1: B1 RNA 1
# RNA 2: B3 RNA 2 with C45A, G47C, G48C, G49U
# Target: T1, EsCas13d, nuclease-dead
# Assay: crRNA (strand 1, pre-loaded); Mg2+; 40 mM Tris-HCl pH 7.5, 150 mM NaCl, 6 mM MgCl2, 1 mM DTT, 0.1% Tween-20, 0.2 mg/ml BSA; 25 C; 10 min per concentration, then washed
# Conditions: tags: His6-TwinStrep-SUMO cleaved; N-terminal SNAP kept (SNAP-Surface 488); label: 3' end held by stalled T7 RNA polymerase
row,Binder,Kd
1,B1,6.4 ± 0.8 nM
2,B2,14.4 ± 1.4 nM
3,B3,5.2 ± 0.4 nM
4,B4,21.5 ± 1.3 nM
5,B5,49 ± 8 nM
6,B6,12.5 ± 0.5 nM
7,B7,8.5 ± 0.7 nM
8,B8,4.64 ± 0.25 nM
9,B9,45 ± 5 nM
10,B10,5.4 ± 0.4 nM
11,B11,20.2 ± 0.9 nM
12,B12,20 ± 4 nM
13,B13,35 ± 4 nM
14,B14,35 ± 7 nM
15,B15,44 ± 4 nM
16,B16,17.2 ± 1.6 nM
17,B17,4.8 ± 0.23 nM

row,Binder,Kd
1,B18,26 ± 6 nM
2,B19,54 ± 18 nM
3,B20,71 ± 15 nM
4,B21,10.8 ± 0.8 nM
5,B22,14.5 ± 0.9 nM
6,B23,30 ± 4 nM
7,B24,48 ± 5 nM
8,B25,5.2 ± 0.32 nM
9,B26,74 ± 9 nM
10,B27,98 ± 25 nM
11,B28,10.2 ± 0.8 nM
12,B29,19.6 ± 3.4 nM
13,B30,19.3 ± 1 nM
14,B31,8.4 ± 0.6 nM
15,B32,44 ± 10 nM
16,B33,21.2 ± 1.4 nM
